{"source": "IntAct's records for PubMed 19008859", "parents": {"B1": {"name": "Myocardin-related transcription factor A (Mus musculus), Q8K4J6 (parent)", "chain": "MTLLEPEMLMMAVQSVLQLKLQQRRTREELVSQGIMPPLKSPAAFHEQRRSLERARTEDYLKRKIRSRPERAELVRMHILEETSAEPSLQAKQLKLKRARLADDLNEKIAQRPGPMELVEKNILPVESSLKEAIIVGQVNYPKVADSSSFDEDSSDALSPEQPASHESQGSVPSPLESRVSDPLPSATSISPTQVLSQLPMAPDPGETLFLAEQPPLPPAPLLPPSLANGSIVPTAKPAPTLIKQSQPKSASEKSQRSKKAKELKPKVKKLKYHQYIPPDQKQDKGAPAMDSSYAKILQQQQLFLQLQILNQQQQQQQQQHYNYQAILPAPPKPSAETPGSSAPTPSRSLSTSSSPSSGTPGPSGLARQSSTALAAKPGALPANLDDMKVAELKQELKLRSLPVSGTKTELIERLRAYQDQVSPAPGAPKAPATTSVLSKAGEVVVAFPAALLSTGSALVTAGLAPAEMVVATVTSNGMVKFGSTGSTPPVSPTPSERSLLSTGDENSTPGDAFGEMVTSPLTQLTLQASPLQIVKEEGARAASCCLSPGARAELEGLDKDQMLQEKDKQIEELTRMLQQKQQLVELLRLQLEQQKRAQQPAPASSPVKRESGFSSCQLSCQPQGSAHAFGSGLVVPTTNHGDTQAPAPESPPVVVKQEAGPPEPDLAPSSQLLLGSQGTSFLKRVSPPTLVTDSTGTHLILTVTNKSADGPGLPAGSPQQPLSQPGSPAPGPPAQMDLEHPPQPPFATPTSLLKKEPPGYEETVTQQPKQQENGSSSQHMDDLFDILIQSGEISADFKEPPSLPGKEKSPPAAAAYGPPLTPQPSPLSELPQAAPPPGSPTLPGRLEDFLESSTGLPLLTSGHEGPEPLSLIDDLHSQMLSSSAILDHPPSPMDTSELHFAPEPSSGMGLDLAVGHLDSMDWLELSSGGPVLSLAPLSTAAPSLFSMDFLDGHDLQLHWDSCL"}}, "data": [{"variants_of": "B1", "conditions": "with acts_rabit ACTA1, P68135", "values": [{"variant": "R68A", "effect of a mutation on the interaction": "disrupting interaction"}]}, {"variants_of": "B1", "conditions": "with acts_rabit ACTA1, P68135", "remark": "another data set of the same source", "values": [{"variant": "L61A;I65A", "effect of a mutation on the interaction": "disrupting interaction"}]}, {"variants_of": "B1", "conditions": "with acts_rabit ACTA1, P68135", "remark": "another data set of the same source", "values": [{"variant": "L74A;I79A;L80A", "effect of a mutation on the interaction": "disrupting interaction"}]}, {"variants_of": "B1", "conditions": "with acts_rabit ACTA1, P68135", "remark": "another data set of the same source", "values": [{"variant": "P69R", "effect of a mutation on the interaction": "decreasing interaction"}]}, {"variants_of": "B1", "conditions": "with acts_rabit ACTA1, P68135", "remark": "another data set of the same source", "values": [{"variant": "R24D;R25D", "effect of a mutation on the interaction": "disrupting interaction"}]}, {"variants_of": "B1", "conditions": "with acts_rabit ACTA1, P68135", "remark": "another data set of the same source", "values": [{"variant": "R24A", "effect of a mutation on the interaction": "disrupting interaction"}]}, {"variants_of": "B1", "conditions": "with acts_rabit ACTA1, P68135", "remark": "another data set of the same source", "values": [{"variant": "R112A", "effect of a mutation on the interaction": "disrupting interaction"}]}, {"variants_of": "B1", "conditions": "with acts_rabit ACTA1, P68135", "remark": "another data set of the same source", "values": [{"variant": "L105A;I109A", "effect of a mutation on the interaction": "disrupting interaction"}]}, {"variants_of": "B1", "conditions": "with acts_rabit ACTA1, P68135", "remark": "another data set of the same source", "values": [{"variant": "L118A;I123A;L124A", "effect of a mutation on the interaction": "disrupting interaction"}]}, {"variants_of": "B1", "conditions": "with acts_rabit ACTA1, P68135", "remark": "another data set of the same source", "values": [{"variant": "G114E;P115Q;L118A;I123A;L124A", "effect of a mutation on the interaction": "disrupting interaction"}]}, {"variants_of": "B1", "conditions": "with acts_rabit ACTA1, P68135", "remark": "another data set of the same source", "values": [{"variant": "G114E;P115R", "effect of a mutation on the interaction": "increasing interaction"}]}]}
